The test system of one series is Colo-205 tumor. The following applies: for tumor growth vs. vehicle control: from study day 14: 2×Con4-C 350 μg/mouse s.c. twice a week, p<0.0001. The procedure: Female nude mice were injected subcutaneously with 2×10^6 Colo-205 cells plus Matrigel (2:1) on study day 0. At day 3, the Ang-2 peptibodies L1-7-N, L1-21-N, Con4-C, and 2×Con4-C were administered subcutaneously at the dose of […], twice a week.
Female nude mice were injected subcutaneously with 2×10^6 Colo-205 cells plus Matrigel (2:1) on study day 0.
Female nude mice were injected subcutaneously with 2×10^6 Colo-205 cells plus Matrigel (2:1) on study day 0. At day 3, Ang-2 peptibody 2×Con4-C or control peptibody were administered subcutaneously at the dose of 350 μg/day. Tumors from groups treated with control peptibody (as described in Table 5) were harvested either at Day 14 (size-matched control) or Day 18 (time-matched control). Tumors from 2×Con4(C) treated group were then harvested at Day 18. Tumor volumes were recorded at regular intervals, as shown.
Female nude mice were injected subcutaneously with 2×10^6 Colo-205 cells plus Matrigel (2:1) on study day 0. Treatment with 350 μg/mouse, s.c. twice a week, of the Ang-2 peptibody 2×Con4-C, or equivalent control peptibody started either at study day 3, 10 or 15. […] The results are set forth in FIG. 8 (body weights not shown).
Female nude mice were injected subcutaneously with 2×10^6 Colo-205 cells plus Matrigel (2:1) on study day 0. At study day 14, treatments were started with a) 350 μg/mouse, s.c. twice a week, of the Ang-2 peptibody 2×Con4-C, b) 20 mg/kg qwx3 i.p. of taxotere, or c) a combination of both.
Female nude mice were injected subcutaneously with 2×10^6 Colo-205 cells plus Matrigel (2:1) on study day 0. At study day 14 started treatments with a) 350 μg/mouse, s.c. twice a week, of the Ang-2 peptibody 2×Con4-C, b) 50 mg/kg qdx5 i.p. of 5-FU, or c) a combination of both.

The target of another series is T1, huAng2 (Homo sapiens, UniProt O15123).
T1 construct: purchased R&D Systems BNO12103A
T1 sequence (O15123 68-496 limits assumed): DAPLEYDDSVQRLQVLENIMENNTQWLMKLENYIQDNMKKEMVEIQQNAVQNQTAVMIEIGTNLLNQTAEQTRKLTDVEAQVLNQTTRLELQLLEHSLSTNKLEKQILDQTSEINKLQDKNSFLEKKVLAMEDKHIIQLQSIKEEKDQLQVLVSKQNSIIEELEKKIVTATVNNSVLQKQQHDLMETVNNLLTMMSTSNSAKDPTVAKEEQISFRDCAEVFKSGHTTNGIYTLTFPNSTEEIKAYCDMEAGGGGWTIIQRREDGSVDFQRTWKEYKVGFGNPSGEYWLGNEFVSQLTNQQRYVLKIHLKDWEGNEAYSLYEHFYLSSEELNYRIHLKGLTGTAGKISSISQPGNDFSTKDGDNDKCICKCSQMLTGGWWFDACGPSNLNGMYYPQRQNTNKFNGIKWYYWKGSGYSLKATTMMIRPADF
The series is described as follows: BIAcore binding to huAng2 (Example 9). The following applies: Table 8. The procedure:
Six samples of anti-Ang2 peptibodies were tested for their binding activity to huAng2 (R&D Systems, BNO12103A) on BIAcore. Protein G was immobilized to a CM5 chip according to the standard amine-coupling protocol (BIAcore Inc.), and the peptibodies were then injected over a protein G surface for capturing (RL˜100 Ru). To test binding between hAng2 and the captured peptibody, 0.3 nM to 40 nM of huAng2 was injected over the captured peptibody surfaces, and binding sensorgrams were analyzed using BIAevaluation 3.0 (BIAcore Inc.).
On the technique in general: In SPR one partner is held on a chip, and binding of the other changes the refractive index at the surface.

Another series concerns the target T2, hAng-1 (Homo sapiens, UniProt Q15389).
T2 sequence (Q15389 16-498): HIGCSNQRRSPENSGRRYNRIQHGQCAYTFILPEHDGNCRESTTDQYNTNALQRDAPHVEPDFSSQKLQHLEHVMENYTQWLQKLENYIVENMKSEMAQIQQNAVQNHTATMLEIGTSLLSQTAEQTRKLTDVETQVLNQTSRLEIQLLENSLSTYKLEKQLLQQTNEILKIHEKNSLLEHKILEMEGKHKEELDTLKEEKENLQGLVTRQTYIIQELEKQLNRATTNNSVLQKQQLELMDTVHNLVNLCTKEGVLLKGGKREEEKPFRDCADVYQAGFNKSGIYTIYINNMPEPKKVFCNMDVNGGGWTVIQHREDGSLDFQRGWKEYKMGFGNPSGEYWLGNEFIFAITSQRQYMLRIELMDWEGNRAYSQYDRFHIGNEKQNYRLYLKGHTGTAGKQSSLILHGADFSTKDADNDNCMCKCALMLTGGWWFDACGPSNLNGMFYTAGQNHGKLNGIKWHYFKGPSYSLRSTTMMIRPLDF
In words: Neutralization ELISA (Example 2). Format: binding. Conditions: Table 5; about 1 nM Tie-2-Fc. In general terms: ELISA stands for enzyme-linked immunosorbent assay.

The target of a further series is T3, hAng-2 (Homo sapiens, UniProt O15123).
T3 construct: conditioned media of human 293T cells transfected with full length human Ang-2 DNA; made in house; host or cells: conditioned media
T3 sequence (O15123 19-496): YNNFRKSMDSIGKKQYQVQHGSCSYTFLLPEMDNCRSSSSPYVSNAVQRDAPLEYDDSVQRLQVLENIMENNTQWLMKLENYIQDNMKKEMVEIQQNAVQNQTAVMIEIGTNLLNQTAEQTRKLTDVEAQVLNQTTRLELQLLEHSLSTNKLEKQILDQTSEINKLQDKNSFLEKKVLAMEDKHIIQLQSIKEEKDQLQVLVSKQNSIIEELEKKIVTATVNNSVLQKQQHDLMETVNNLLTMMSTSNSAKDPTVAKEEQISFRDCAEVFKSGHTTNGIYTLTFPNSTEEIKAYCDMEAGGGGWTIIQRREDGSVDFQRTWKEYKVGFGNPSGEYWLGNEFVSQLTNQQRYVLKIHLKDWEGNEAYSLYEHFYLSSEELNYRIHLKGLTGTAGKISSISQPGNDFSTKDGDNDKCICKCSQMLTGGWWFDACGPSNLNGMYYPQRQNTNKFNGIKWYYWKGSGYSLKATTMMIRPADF
The series is described as follows: Affinity BIAcore (Example 2). Format: binding. The following applies: Table 6. The procedure:
(§1) Binding assays were carried out by first capturing about 100 Ru of each candidate anti-Ang-2 peptibody to the immobilized Protein G, after which various concentrations (0-100 nM) of huAng-2 or mAng-2 were injected over the bound antibody surface at a flow rate of 50 μl/min for 3 minutes. Peptibody binding kinetic parameters including ka (association rate constant), kd (dissociation rate constant) and KD (dissociation equilibrium constant) were determined using the BIA evaluation 3.1 computer program (Biacore, Inc.). Lower dissociation equilibrium constants indicated greater affinity of the peptibody for Ang-2.

A further series concerns the target T4, mAng-2 (Mus musculus, UniProt O35608).
T4 construct: made in house
T4 sequence (O35608 19-496): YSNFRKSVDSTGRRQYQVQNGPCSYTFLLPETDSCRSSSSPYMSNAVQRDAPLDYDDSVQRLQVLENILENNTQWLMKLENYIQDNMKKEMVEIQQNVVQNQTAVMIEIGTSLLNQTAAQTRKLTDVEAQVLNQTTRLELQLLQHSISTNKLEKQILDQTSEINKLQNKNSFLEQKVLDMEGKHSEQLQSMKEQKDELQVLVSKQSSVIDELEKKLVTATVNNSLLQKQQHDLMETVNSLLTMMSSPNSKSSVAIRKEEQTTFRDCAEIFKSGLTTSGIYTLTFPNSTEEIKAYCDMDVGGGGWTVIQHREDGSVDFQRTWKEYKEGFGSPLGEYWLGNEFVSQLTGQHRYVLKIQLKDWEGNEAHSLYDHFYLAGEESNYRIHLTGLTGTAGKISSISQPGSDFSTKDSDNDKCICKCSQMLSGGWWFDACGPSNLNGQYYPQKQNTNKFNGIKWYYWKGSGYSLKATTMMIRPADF
In words: Affinity BIAcore (Example 2). The following applies: Table 6. Format: binding, murine. The procedure:
as §1

Like-named read-outs stand apart in the source and are kept apart here. Primed or numbered codes have the meaning given here. Where no end group is shown, it is not given here. [ ]: non-standard residue; d: D form. Fc(6) = Fc vehicle: non-antigen-binding antibody fragment (from proteolytic digestion of an antibody) fused to the peptide; Fc(8) = Fc vehicle: non-antigen-binding antibody fragment fused to the peptide (peptibody); Fc(5) = non-antigen-binding fragment of an antibody (vehicle) fused to the peptide; Fc(9) = antibody Fc fragment, the non-antigen-binding fragment

As for `O=c1[nH]cc(F)c(=O)[nH]1` [Peptibody 5-FU, 5-FU, reference compound], the “tumor growth vs. vehicle control” value in the series on Colo-205 tumor (Example 19b, 5-FU 50 mg/kg qdx5 i.p., or both) is “Significant differences in tumor growth”. Moreover, the “transient reduction in body weight” value in the series with Colo-205 tumor (Example 19b, at study day 20, followed by complete recovery) was 18%.
For `CC(=O)O[C@@]12CO[C@@H]1C[C@H](O)[C@@]1(C)C(=O)[C@H](O)C3=C(C)[C@@H](OC(=O)[C@H](O)[C@@H](NC(=O)OC(C)(C)C)c4ccccc4)C[C@@](O)([C@@H](OC(=O)c4ccccc4)[C@H]21)C3(C)C` [taxotere, reference compound], the “tumor growth vs. vehicle control” value in the series with Colo-205 tumor (Example 19a, taxotere 20 mg/kg qwx3 i.p., or both) was “Significant differences in tumor growth”.
In the series with huAng2, “M-Fc-GGGGGAQ-PIRQEECDWDPWTCEHMWEV-LE (M[Fc(8)]GGGGGAQPIRQEECDWDPWTCEHMWEVLE; cysteine pairing not given here; also: Fc vehicle fused at position 2) [Con4-44 (C)]” gave a ka of 290000 M⁻¹ s⁻¹ and a kd of 5.9e-05 s⁻¹.
As for “MGAQ-FDYCEGVEDPFTFGCDNHLE-GGGGG-Fc (MGAQFDYCEGVEDPFTFGCDNHLEGGGGG[Fc(6)]; cysteine pairing not given here) [12-9 (N)]”, the “hAng-1 IC 50” value with hAng-1 is “No In-”. Also, in the series with hAng-2, the hAng-2 ka worked out at 120000 M⁻¹ s⁻¹ and the hAng-2 kd came out at 0.001 s⁻¹. Also, in the series with mAng-2, the mAng-2 ka came out at 720000 M⁻¹ s⁻¹ and the mAng-2 kd was determined as 0.00023 s⁻¹.
Turning to “MGAQ-HQICKWDPWTCKHWLEGGGGG-Fc (MGAQHQICKWDPWTCKHWLEGGGGG[Fc(5)]; not fully specified (bridges); printed as MGAQ-HQICKWDPWTCKHWLEGGGGG-Fc; cysteine pairing not given here) [8-14 (N)]”, the “hAng-1 IC 50” value in the series with hAng-1 was “No In-”.
In the series with huAng2, “MGAQ-HTFQPLDELEETLYYQWLYDQL LEGGGGG-Fc (MGAQHTFQPLDELEETLYYQWLYDQLLEGGGGG[Fc]; also: Fc vehicle domain fused (peptibody)) [L1-21 (N)]” returned a ka of 560000 M⁻¹ s⁻¹ and a kd of 0.00014 s⁻¹.
Regarding “MGAQ-KRPCEEIFGGCTYQLEGGGGG-Fc (MGAQKRPCEEIFGGCTYQLEGGGGG[Fc(5)]; not fully specified (bridges); printed as MGAQ-KRPCEEIFGGCTYQLEGGGGG-Fc; cysteine pairing not given here) [Con1 (N)]”, the “hAng-1 IC 50” value in the series with hAng-1 was “No In-”.
On the same count and under the same terms, the result for “MGAQ-KRPCEEMWGGCNYDLEGGGGG-Fc (MGAQKRPCEEMWGGCNYDLEGGGGG[Fc(5)]; not fully specified (bridges); printed as MGAQ-KRPCEEMWGGCNYDLEGGGGG-Fc; cysteine pairing not given here) [8-8 (N)]” reads “No In-”.
With “MGAQ-QKFQPLDELEQTLYEQFMLQQA LEGGGGG-Fc (MGAQQKFQPLDELEQTLYEQFMLQQALEGGGGG[Fc]; also: Fc vehicle domain fused (peptibody)) [L1-10 (N)]”, in the series with huAng2, the ka turned out to be 150000 M⁻¹ s⁻¹ and the kd was 0.00011 s⁻¹.
As for “MGAQ-QYGCDGFLYGCMINLE-GGGGG-Fc (MGAQQYGCDGFLYGCMINLEGGGGG-{Fc(9)}; not fully specified (bridges); printed as MGAQ-QYGCDGFLYGCMINLE-GGGGG-Fc; cysteine pairing not given here) [C17 (N)]”, the “hAng-1 IC 50” value with hAng-1 was “No In-”.
In the series with huAng2, “MGAQ-TNFMPMDDLEQRLYEQFILQQG-LEGGGGG-Fc (MGAQTNFMPMDDLEQRLYEQFILQQGLEGGGGG-Fc) [L1-7 (N)]” yielded a ka of 370000 M⁻¹ s⁻¹ and a kd of 8.7e-05 s⁻¹.
As to “MGAQKFNPLDELEETLYEQFTFQQLEGGGGG-Fc [L1 (N)]”, in the series with hAng-1, the “hAng-1 IC 50” value is “No In-”. In the series with hAng-2, this compound showed a hAng-2 ka of 290000 M⁻¹ s⁻¹ and a hAng-2 kd of 0.00091 s⁻¹. In addition, in the series with mAng-2, the mAng-2 ka came to 560000 M⁻¹ s⁻¹ and the mAng-2 kd amounted to 0.00023 s⁻¹.
